Target: T1, purified FR-α (UniProt P15328 25-234, limits assumed)
T1 construct: also called folate receptor-alpha; alpha-folate receptor
Assay: surface plasmon resonance spectroscopy

T1 sequence (P15328 25-234 limits assumed): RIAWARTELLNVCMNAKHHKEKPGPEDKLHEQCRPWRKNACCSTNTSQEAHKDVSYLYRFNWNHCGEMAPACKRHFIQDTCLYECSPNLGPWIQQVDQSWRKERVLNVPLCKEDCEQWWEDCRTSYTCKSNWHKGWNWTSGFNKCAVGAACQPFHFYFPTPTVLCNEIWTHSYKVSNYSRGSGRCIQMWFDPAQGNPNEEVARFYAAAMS

Kd: 2.23 nM
koff: ~0.000502 s⁻¹
kon: ~225000 M⁻¹ s⁻¹
B1: anti-FR-α antibody comprising a heavy chain comprising an amino acid sequence of SEQ ID NO:5 and a light chain comprising an amino acid sequence of SEQ ID NO:2 (antibody, human IgG1, kappa, V domains shown)
VH: EVQLVESGGGVVQPGRSLRLSCSASGFTFSGYGLSWVRQAPGKGLEWVAMISSGGSYTYYADSVKGRFAISRDNAKNTLFLQMDSLRPEDTGVYFCARHGDDPAWFAYWGQGTPVTVSS
VL: DIQLTQSPSSLSASVGDRVTITCSVSSSISSNNLHWYQQKPGKAPKPWIYGTSNLASGVPSRFSGSGSGTDYTFTISSLQPEDIATYYCQQWSSYPYMYTFGQGTKVEIKR
notes: also called antibody of the invention; humanized anti-FR-α antibody

— patent US20170184603A1 (MORPHOTEK, published 2017)
